Data from patent US20230287090A1 (FEINSTEIN INSTITUTES FOR MEDICAL RESEARCH, published 2023).
Residue numbers refer to the chain shown, from its start. Like-named read-outs stand apart in the source and are kept apart here.

Columns and labels:
[1] = target: T1, Recombinant receptor-binding motif (RBM, residues 437-508) of SARS-CoV-2 spike (S) protein with N-terminal … (SARS-CoV-2, UniProt P0DTC2 437-508)
TN = target: T2, TN
T2 single chain: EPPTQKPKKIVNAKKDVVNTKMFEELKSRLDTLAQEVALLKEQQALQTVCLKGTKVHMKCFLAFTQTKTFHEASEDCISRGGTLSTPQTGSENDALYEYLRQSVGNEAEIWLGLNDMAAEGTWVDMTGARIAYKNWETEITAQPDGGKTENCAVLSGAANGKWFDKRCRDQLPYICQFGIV

[2] = target: T1, Recombinant receptor-binding motif …; remark: listed apart in the source
[3] = target: T1, Recombinant receptor-binding motif …; remark: listed apart in the source

B1: Clone 27B12 (mAb8) (antibody, V domains shown)
VH: DVKLVESGGGLVKLGGSLKLSCAASGFTFSTDYMSWVRQSPEKRLELVAAINSNGGTTYYPDTVKGRFIISRDNAKNTLYLQMSSLRSEDTALYYCARQVKNGLDYWGQGTSVTVSS
VL: DIQMTQTTSSLSASLGDRVTISCRASQDISNYLNWYQQKPDGTVKLLIYKTSRLHSGVPSRFRGSGSGTDYSLTISNLEEEDVATYFCQQGNTLPPTFGGGTKLEIK
B1 was tested, and the Kd [1] was 17.4 nM, the Kd (TN) was 2.02 nM and the Kd [2] was 57.4 nM. For the same binder, the Kd [3] was 17.4 nM.

B2: 23F6 (mAb5) (antibody, V domains shown)
VH: B1 VH with T31S, D32S, S40T, S53N, I69T, R87K, A97T, V100G
VL: B1 VL with S30G, Y32L, Y49S, K50Y, R63S, S76T, E80Q, V83I, G91A, T102S
Binder B2 has a Kd (TN) of 8.03 nM.

B3: Clone 25B2 (mAb6) (antibody, V domains shown)
VH: B1 VH with K3N, A24D, T31S, D32Y, S40T, T57R, I69T, R87K, V100G
VL: B1 VL with Y32H, V44I, K50Y, R63S, Y71F, T74S, E80Q, V83I, N92K
B3 gave a Kd [1] of 180 nM, a Kd (TN) of 0.915 nM and a Kd [3] of 180 nM.

B4: Clone 18B1 (mAb2) (antibody, V domains shown)
VH: B1 VH with K13N, T31S, S40I, I69T, R87K, V100G, L104M
VL: B1 VL with Y32H, K39R, K50Y, R63S, L73F, S76T, E79D, E80Q, V83I, N92K
In the case of B4, the Kd [1] is reported as 62.8 nM, the Kd (TN) is reported as 0.114 nM and the Kd [3] is reported as 62.8 nM.
